According to the nanobody polyreactivity screen of Harvey et al. (2022):

Assay: yeast display, Sf9 membrane polyspecificity reagent, FACS + sequencing; frameworks hold sequencing errors
Procedure, shortened: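 Genes from sorted yeast were amplified by colony PCR, read by MiSeq 2 × 250 sequencing and filtered on CDR length. These cells carried a synthetic nanobody library in Saccharomyces cerevisiae BJ5465 and were sorted by FACS into low and high (top ~1%) gates on anti-HA and streptavidin fluorescence. Polyreactivity is labelled according to the gate of origin.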

Sequence	polyreactivity (PSR sort gate)
QVQLVESGGGLVQAGGSLRLSCAASGNTFYINAMGWYRQAPGKERELVAAINYSGDSTYADSVKGRFTITRDNAKNTFYLQMNSLKPEDTAVYYCAADTGWYDDWTHDYWGHGTQVTVSS	low polyreactivity
QVQLVESGGGLVQAGGSLRLSCAATGFIFAANAMGWYRQAPGKERELVAAINYRGSSTYYADSVKGRFTISRDNAKNTVYLQMNSLKPEDTAVYYCAARSGAQRGGGYWGQGTQVTVSS	high polyreactivity
QVQLVESGGGLVQAGGSLRLSCAPSGRTFRFYVMGWYRQAPGKERELVAAISRGGGSTYYADSVKGRFTISRDNAKNTVYLQMNSLKPEDTAVYYCAAKPYKTRSSYWGDYYWGQGTQVTVSS	high polyreactivity
QVQLVESGGGLVQAGGSLRISCAASGSIFSFYAMGWYRQAPGKERELVAAISSGGSTYYADSVKGRFTISRDNAKNTVYLQMNSLKPEDTAVYYCAHGFAQYGLDLDPGDYDYWGQGTQVTVSS	low polyreactivity
QVQLVESGGGLVQAGGSLRLSCAASGIIFYYNAMGWNRKAPGKERELVAAISQRGSSTYYADSVKGRFTISRDNAQNTVYLQMNSLKPEDTAVYYCAKRFIYGRYNYWGQGTQVTVSS	high polyreactivity
QVQLVESGGGLVQAGGSLRLSCAASGSTFSYYTMGWYRQAPGKERELVAGISYSGGRTYYADSVKGRFTSSRDKAKNTVYLQMNSLKPEDTAVYYCAKVSWRRGAFYYWGQGTQVTVSS	high polyreactivity
QVQLVESGGGLVQAGGSLRLSCAASGRPFWQYAMGWKRQGPGKERELVAAITSSGGSTYDADSVKGRITISRDNAKNTVYLQMNCLKPEDTAVYYCADDTRYYRYYYWGQGTQVTVSS	high polyreactivity
QVQLVESGGGLVQAGGSLRLSCAASGSTFRGYAMGWYRQAPGKERELVAAISWSGGSTYYADSVKGRFTISRDNAKNTVYLQMNSLKPEDTAVYYCNAVLYRFAYNYWGQGTQVTVSS	low polyreactivity
QVQLVESGGGLVQAGGSLRLSCAASGFIFRYYAMGWYRQAPGKERELVAAISRSGGRTYYADSVKGRFTISRDNAKNTVYLQMNSLKPEDTAVYYCAARYPVRPDDGYWGQGTQVTVSS	high polyreactivity
QVQLVESGGGLVQAGGSLRLSCAASGRIFSPYAMGWYRQAPGKERELVAAINSIGGSTYYADSVKGRFTISRDNAKNTVYLQMNSLKPEDTAVYYCAVKWYRLGLIRWGGYWGQGTQVTVSS	high polyreactivity
QVQLVESGGGLVQAGGSLRLSCAASGITFYRYAMGWSRQAPGKERELVAAIRRAGSTYYADSVKGRFTISRDIAKNSVYLQMNSLKPEDTAVYYCNARYGIGMNYWGQGTHVTVSS	high polyreactivity
QVQLVESGGGLVQAGGSLRLSCAASGSIFDRNAMGWYRQAPGKERELVAAITSGGSTYYADSVKGRFTISRDNAKNTVYLQMNSLKPEDTGVYYCNADADPPVPLYYWGQGTQVTVSS	low polyreactivity
QVQLVESGGGLVQEGGSLLLSCAASGRTFNQYAMGWYRQAPGKERELVAGITISGGSTYYADSVKGRFTISRENAKNTVYLQMNSLIPEDTAVYYCIAVFDYYRQSKWTMDYWGQGTQVTVSS	low polyreactivity
QVQLLESGGGLVQAGGRLRLSCAASRNTFRQTAMGWNRQAPGKETELVASITSGGSTYYADSVQGRFTISRDNAKNTVYLQMNSLNPEDTAVYYCASRYIRSASWFYRIYDYWGQGTQVTVSS	high polyreactivity
QVQLVESGGGLVQAGGTLRLSCAASGSILQYNAMGWYRQATVKVSELVAAISRTGGSTYYADSVKGRFTISRDIAMNNLYLQMNSLKPEDTAVYYCNVYLGILYKYDYWGQGNQVTVSS	low polyreactivity
QVQLVESGGGLVQAGGSLRLSCAASGFIFDPYGMGWYRQAPGKERELVAAITASGGTTYYADSVKGRFTISLDYANNTVYLQLNSLKPEDTAVYYCAAAVWYRGWYRYDYWGQGTKVTVSS	low polyreactivity
QVQLVESGGGLVQAGGSLRLSCAASGSTFVLYAMGWYRQAPGKERELVATITTSGARTHYADSVKGRFTISRDNAKNTVYLQINSLKPEDTAVYYCAAESYWTGYDYGGQGTQVTVSS	low polyreactivity
QVQLVESGGGLVQAGGRHRLTCAASGYTFDWYTMGWYRQAPGTERELVAAISASGVRTYYADSVKGRFTISSDNAKNSVYLQMNSLKPEDTAVYYCYRVYSTSRITEYEFDYWGQGTQVTVSS	low polyreactivity
QVQLVESWGGLVQAGGSLRLSCGASGYSFQPYTMGWYRQAPGKERELVAAISKSGTRTYYADSVKGRFTISRDNAKNTVYLQMNSLKPEDTAVYYCAARYTGNLFDYWGQGTQVTVSS	high polyreactivity
QVQLEESGGGLVQAGGSLRLSCAASGIFSRYAMGWDRQAPGKERELVAAISSRGSTYYADSVKGRFTISRDNAKYTVYLQLNSMKPEDTGVYYCAATVGRGKLDYWGQGTQVNVSS	high polyreactivity
QVQLVESGGGLVQAGGSLRLSCAASGSTLGAYAMGWYRQAPGKERELVAAISRSGGNTYYADSVKGRFTISRDNAKNTVYLQMNSLKPEDTAVYYCAAVKLFLGLCYDYWGQGTQVTVSS	low polyreactivity
QVQHVESVGCLVQAGGTLRLSCASSVRTFLWYTMGWYRQAPGKKRELVATITSGGRTNYADSVKGRFTISRDNAKNTVYLQMNSLNPEDTAVYYCARLGAYTGRYDYWGQGTQVTVSS	high polyreactivity

Sequence	polyreactivity (PSR sort gate)
QVQLVESGVGLVQAGGSLRLSCAASGYIFRLYAMGGYRQAPGKERELVATITASGGTYYADSVKGRFTISRDNAKNTVYLQMNSLKPEDTAVYYCAAAKLRRLSRVRYGYWGQGTQVTVSS	high polyreactivity
QVQLVESGGGLVQAGGSLRLSCAASGFTFARYTMGWYRQAPGKERELVAAISSRGSSTYYADSVKGRFTISRDNAKNTVYLQMNSLKPEDTAVYYCAASPYDTQTLDYAYWGQGTQVTVSS	high polyreactivity
QVQLVESGGGLVQAVGSLRLSCAASGRTFDFYAMGWYREAPGKEREFVAAISSRGGSTYYADTVKGRFTISRDNAKNTVYLQMNSLKPEDTAVYYCAKDLGYRGRYNYWGQGTQVTVSS	low polyreactivity
QVQLVESGGGLVQAGGSLRLSCAASGSTFNRNTMGWYRQAPGKERELVAAITSSGGRTYYADSVKGRFTISRDNAKNTVYLQVNSLKPEDTAVYYCANVIRVLIAGRFDSWGQGTHVTVSS	high polyreactivity
QVQLVESGGGIVQAGGSLRLSCAASGRTLQRNAMGWYRQAPGKERELVAAISWSGASTYYADSVKGRFTISRDNAKNTVYLQMNSLKPEDTAVYYCAATYIDRGNIYDYWGQGTQVTVSS	high polyreactivity
QVQLVESGGGLVHAGGSLRLSCAASGYTFTYYVMGWYRQAPGKEREFVAGIRNGGGRMYYADSVKGRFTISRDNAKNTVYFQMNSLKPEDTAVYYCNAGYGTYYSGVYWRGEMDYWGQGTQVTVSS	high polyreactivity
QVQLVESWGGLVQAVGSLRLTCAASGVIFAIYAIGLYRQAAGKEREMVSSIRWSSGRTYYPDSVKGRFTISRDNAKNTVYLQMNSLKPEDTAVYNCAATPSIFTIHRQDYDYWGQGTQVTVSS	high polyreactivity
QVQLVESGGGLVQAGGSLRLSCAASGRIYPKNTMGWYRQERGKERELVAAINWNGGRTYYADSEKGRFTISRDNAKNTVYLPMNSLKPEYTAVYYCAKDGYWDFDYWGQGTQVTVSS	low polyreactivity
QVQLVESGGGLVQAGGSLRLSCAASGSTFGYYTMGRYRQAPGKERELVAAITWSGGTTYYAESVKGRFTISRDNAKNPVYLQMNSLKPEDTAVYYCATRPWYYASPRTRFGSWGQGTQVTVSS	high polyreactivity
QVQLVESGGGLVQAGGSLRLSCAASGFTFSPYTMGSYRQAPGKERELVAGITSRGGSTYYADSVKGRFTISRDTAKNTVYLQMNILKPEDSAVYYCAARSPGYYRIVWYDYWGQGTQVTVSS	high polyreactivity
QVQLVESGGGLVQAGGSLRLSCAASGSIFSFNVMGWYRQAPGKEREMVATITGGGSTNYADSVKGRFTISRDNAKNTVYLQMNSLKPEDTAVYYCNKRNRWTPFYTYDYWGQGTQVTVSS	low polyreactivity
QVQLVESGGGLVQAGGSLRLSCAASGSTFNPYAMGWYRQAPGKERELVATITWRGTSTYYADSVKGRFTISRDNAKNTVYLQMNSLKPEDTPVYYCAARVRYKYDYWGQGTQVTVSS	high polyreactivity
QVQLVESGGGLVQAGGSLRLSGAASGFIFIHYAMGWYRQAPGKERELVAAIRASGTSTYYADSVKGRFTISRDNAKNTVYLQMNSLKPEDTAVYYCAAQGYLRLRTHFNYWGQGTQVTLSS	low polyreactivity
QVQLVESGGGLVQAGGSLRLSCAASGSTFSSYAMGWYRQAPGKERELVAAISRRGGRTYYADSVKGRFTISRDNAKNTVYLQMNRLKPEDTAVYYCAADWGVRDEYYYWGQGTQVTVSS	high polyreactivity
QVQLVESGGGLVQAGGSLRLSCAASGFTFPWNVMGWYRQAPGKEREFVAAISKSAGSTFYADSVKGRFTISRDNAKNTVYLQMNSLKPEDTAVYFCAKPRVPGVHVQEMYYWGQGTQVTVSS	low polyreactivity
QVQLVESGGGLVQAGGSLRLSCAASGRISLSNAMGWYRQAPGKEREFVAAITKRSDRTYYADSVKGRFTISRDNAKNTVYLQMNSLKPEDTAVYYCAAKPLFGTRDEYWGQGTQVTVSS	low polyreactivity
QVQLVESGGGLVQAGGSLRLSCAASGLTFDHNVMGWYRQAPGKERELVAAISRSGSSTYYADSVKGRFTISRDNAKNTVYLQMNSLKPEDTAVYYCAASDKRIYNLLRRYYYWGQGTQVTVSS	high polyreactivity
QVQLGESGGGLVQAGGILRLSCAASGRIFPQYAMGWYRQAPGKERELVAGITSVGSTYYADSVKGRFTISRDNAKNTVYLQMNSLKPEDTAVYFCAAVPSRYVRANRRTYRYYYWGKGTQVTVSS	high polyreactivity
QVQLLESGGGLGQAGGRLRLICAASGRTFTPYAMGWYRPAPGKERELVAAIDTSGGSTYADSVKGRFTISRDNAKNTVYLQMNCQKPEDTAVYYCATRGFYSWDYWYLWEYDYWGQGTQVTVSS	low polyreactivity
QVQLVESGGGLVQAGGSLRLSCAASGFIFYYYTMGWYRQAPGKEREFVAAISSSGTITYYADSVKGRFTISRDNAKNTVYLQMNSLKPEDTAVYYCNAELYYPYEFWRFSGYDYWGQGTQVTVSS	low polyreactivity
QVQLVESGGGLVQAGGSLRLSCAASGLTFGFYARGWYTQAPGKERQLVPRISNGGSTNYADSVKGRFTISRDNAKNTVYLQMNSLKPEDTAVYYCNAGLVLPPPGAYIVYFDQMDYWGQGTQVTVSS	low polyreactivity
